Laboratory results published in paper PMC2213029 (The Journal of Experimental Medicine, 2005).
Non-standard residues stand in square brackets, D forms with d. No end group written: not given here. pY = N[C@@H](Cc1ccc(OP(=O)(O)O)cc1)C(=O)O

T1: CD45-D1D2 (597–1213) C828S (human, UniProt P08575 622-1238, C828S, selenomethionine (Sel-Met) substituted in the crystals with the phosphopeptides)
T1 sequence (looked up): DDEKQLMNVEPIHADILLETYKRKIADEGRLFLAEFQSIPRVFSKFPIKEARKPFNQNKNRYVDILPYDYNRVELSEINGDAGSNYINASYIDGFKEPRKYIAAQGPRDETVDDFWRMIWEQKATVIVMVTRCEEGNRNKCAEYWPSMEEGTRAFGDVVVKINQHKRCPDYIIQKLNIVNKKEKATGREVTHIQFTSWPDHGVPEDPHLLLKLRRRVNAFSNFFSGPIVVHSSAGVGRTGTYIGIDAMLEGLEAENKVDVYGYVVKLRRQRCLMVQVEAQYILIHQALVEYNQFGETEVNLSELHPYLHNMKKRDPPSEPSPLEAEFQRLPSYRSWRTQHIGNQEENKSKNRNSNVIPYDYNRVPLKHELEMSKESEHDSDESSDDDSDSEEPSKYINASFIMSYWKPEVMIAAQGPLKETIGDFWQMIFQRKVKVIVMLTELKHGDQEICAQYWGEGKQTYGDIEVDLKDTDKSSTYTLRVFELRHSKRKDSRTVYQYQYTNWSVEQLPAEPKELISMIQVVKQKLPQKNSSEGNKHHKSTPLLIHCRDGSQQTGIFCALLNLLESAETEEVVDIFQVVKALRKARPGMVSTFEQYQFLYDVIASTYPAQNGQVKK

B1: CD3ζ ITAM-1 phosphopeptide (membrane proximal ITAM of the CD3ζ chain, both tyrosines phosphorylated) (peptide)
peptide: QQQQNQL[pY]NELNLGRREE[pY]DVLDKRRG
B2: NPTpYS phosphopeptide derived from the polyoma middle T antigen (peptide)
peptide: NPT[pY]S

Target: T1, CD45-D1D2 (597–1213) C828S
Assay: crystal structure

Row | Binder | binding result
1 | B1 | binds
2 | B2 | binds
